Results reported in the DeepSol protein solubility set.

Assay: soluble on expression in E. coli; label from the status in PepcDB or PDB records

Sequence | soluble on expression in E. coli
MSLTYYFSGTIDRVIFENTSNFFKIILLEIDDTDSDFDDFEIIVTGTIADVIEGENYTFWGELTQHPKYGQQLKVERYQRAKPSSAGLIKYFSSQHFKGIGKKTAEKIIHLYGDDPIDNILEDPDKLESISGLSKANRENLVSKLRLNYGAEQILAKLAEYGLNNKTAVQIFERYKEESLTVITENPYQLVEDIQGIGFKMADKLAEQVGINSDAPQRFRAALVHTLLETSIDKGDTYIEAKELLEKSLFILEEVRQVELDPSQIAQELTQLISEDKVQNIGTKIFDNTLFYAESGIHKHLTRILDRPLEKEISSQDIQTEIKHIQAEFNINYDKAQKNAIQKAIQSKVFLLTGGPGTGKTTVINGIIKAYANLHQIDLQKSDRPIILAAPTGRAARRMNELTGLPSATIHRHLGLNGDSEYQALDDFLDCDLIIIDEFSMVDTWLANQLFSAIASNTQVIIVGDSDQLPSVGPGQILADLLKINRLPQVSLTKIFRQSEDSTIVTLANQIRQGRLPTDFTAKKADRSYFEAQSTHIPQMIQKIVSSALKSGIDAQEIQILAPMYRGQAGITHLNKLMQDLLNPLNNQLEFQFNDLHFRKGDKVLHLINDAQINVFNGDIGYITDLIPAKYTESKQDEMILDFDGTEINYPRNEWLKITLAYAMSIHKSQGSEFKVVILPVTRQSGRLLQRNLIYTAITRSKSKLVMLGEIAAFDNAIKNEGTKRKTYLIERFKKDECSGHHNTEKNKQGVKESAAILKEDFILTERNILTIDPMIGLSQADIDLFFKKEGHHHHHH | soluble
MSLVDQIKSYVAMRKYSIKRDEHGIVRLQLNNKDLFQFGPLDQGWWPDGLYTAPTDEALRYDIEKTKDFGFNMIRKHIKVEPARWYTYCDQIGLIVWQDMPSGDKSPEWQNRKYFEGTELTRSAESEETYRKEWKEVIDCLYSYPCIGTWVPFNEAWGQFKTQEIAEWTKQYDPSRLVNPASGGNHYTCGDMLDLHHYPGPEMFLYDAQRATVLGEYGGIGLVLKDHLWEPNRNWGYIQFNTSAEATAEYLKYAGILKDMISRGFSAAVYTQTTDVEVEVNGLMTYDRKVIKLDESKLKKMNTEICNSLKEGHHHHHH | not soluble
MSLVEDVKGVGFKTADKIASSLGIEADSPNRFRAALMHEVNTHSQSTGDTYIEAKNLLEMTIDLLEEARNVEVNPSAVAEEINGLIVDGKVQQEGTKIFENSLYFAEDGIRKSLTALTNRSGKDFADEKLLTVLAEVERDLEITYDDLQKQAIIGAMNQQFFILTGGPGTGKTTIINGFIETYARLHQLDLDPDHYNDDVFPILLAAPTGRASRRMNELTGLPAATIHRHLGLGQDEAEDALGNELSGALLIVDEFSMVDTWLANKLFQAIPGSMKVLLVGDADQLPSVGPGQIFADLLKIPEIPSVKLDKIFRQGDDSTITDLAHHIKDGQLPSDFTAKKPDRSYFEVSANFVPQMVEQIASAWQKRGNNPFELQILAPMYKGMAGINAMNVLLQNLFNPLNDRLEFALGDMKFREGDKVLHLVNDAEANVFNGDLGQIVELIAAKYTDSKQDELVMDFDGQELTYPRAEWYKITLAYAMSIHKSQGSEFSTVIVPMVSSYSRMLERNLLYTAITRAKQSLILLGEERAFAQAVAREGANRKTYLIERFMGENEGHHHHHH | soluble
MSLVGGFPHHPVVHHEGYPFAAAAAAAAAAAASRCSHEENPYFHGWLIGHPEMSPPDYSMALSYSPEYASGAAGLDHSHYGGVPPGAGPPGLGGPRPVKRRGTANRKERRRTQSINSAFAELRECIPNVPADTKLSKIKTLRLATSYIAYLMDLLAKDDQNGEAEAFKAEIKKTDVKEEKRKKELNEILKSTVSSNDKKTKGRTGWPQHVWALELKQ | not soluble
MSLVGNMNREALFKTLTTGYLHFWSLSRKKLWLKGETSGNFQIIEEFKVDCDADAVLFKVTSLGPICHTGNYTCFYRSYDELVNSKSEGHHHHHH | not soluble
MSLVKAVLFDIDGTLLSEKPLIMFILPQVYDELANKLNISRMEARRIFLSEIEKRKGKYEWHDWNFFFRLFSLPFKYEDFIMKYPTKIEVFPGVVEVLKYLKERGYRLGIVTSGPRYQVLKLKVSGIYRYFDVVVTRDDVGSIKPEPRIFLAALEKLKISPKDAVMVGDSLEQDILGAKGVGMKSVWINVGGENGYNLPDFEISSILQLPEVIEDESDIEGHHHHHH | soluble
MSLVMVVDGSKLVRKLITDVLRRELPEVDVIGCVGIAEARQTLEAGTVDLVTTSLFLPDGDGLALARSVREEAGQAYVPVIVVSGDTQQHLVERRFTEYVTDYFDKALGHEALAAFIRGYVQPEPVSSGTVLYVEDSCVVAEATTRMLERQGLRVVHVLTAEDAFALLTAESLGRTEYRINLVLTDVTLKGELSGCDVVQRIRIDFSYGKRRLPVLVMTGDTNSQNQSELLRAGANDLVQKPIEERLLVTKVLFQLRLARLKDDLATIEGHHHHHH | not soluble
MSLVRNSSRLLRSQLKRVQSVPVALYHENVVEHYENPRNVGSLDKKDVTVGTGLVGAPACGDVMKLQIKVDENGKIVDAKFKTFGCGSAIASSSLATEWVKGKSIDEAGKLKNTDIAKELRLPPVKLHCSMLAEDAIKAALADYKVKQQKKVAN | not soluble
MSLVTNKLGRDIPQPYADQYGVFEGELANIKQYDESSRRIKPVKPGDSKLLGSVREAIEKTGLTDGMTISFHHHFREGDFIMNMVLEEIAKMGIKNLSIAPSSIANVHEPLIDHIKNGVVTNITSSGLRDKVGAAISEGLMENPVVIRSHGGRARAIASGDIHIDVAFLGAPSSDAYGNVNGTKGKATCGSLGYAMIDAKYADQVVILTDNLVPYPNTPISIPQTDVDYVVTVDAIGDPQGIAKGATRFTKNPKELLIAEYAAKVITNSPYFKEGFSFQTGTGGASLAVTRFMREAMIKENIKASFALGGITNAMVELLEEELVEKILDVQDFDHPSAVSLGKHAEHYEIDANMYASPLSKGAVINQLDTCILSALEVDTNFNVNVMTGSDGVIRGASGGHCDTAFAAKMSLVISPLIRGRIPTFVDEVNTVITPGTSVDVIVTEVGIAINPNRQDLVDHFKSLNVPQFSIEELKEKAYAIVGTPERIQYGDKVVALIEYRDGSLMDVVYNVEGHHHHHH | soluble
MSLYDVTEWKHVFKLDPNKDLPDEQLEILCESGTDAVIIGGSDGVTEDNVLRMMSKVRRFLVPCVLEVSAIEAIVPGFDLYFIPSVLNSKNADWIVGMHQKAMKEYGELMSMEEIVAEGYCIANPDCKAAALTEADADLNMDDIVAYARVSELLQLPIFYLEYSGVLGDIEAVKKTKAVLETSTLFYGGGIKDAETAKQYAEHADVIVVGNAVYEDFDRALKTVAAVKGEEGGSHHHHHH | soluble
MSLYIDGTFSYSLYRKICTDRSAVNKASNTQESSVAKPSIIKTSENPLQTIEVEVYDEYGEKLVKSIACERPLTVLLNWKEIVTLMTLGSRPEALVLGYLKNQSFISDPEALDSIIIDWETHSAAVVTRENIDHLEPALKKKTVTSGCGQGTMYGNVMKQLEHYQVPQQPIKQSQIYAALEALTHYNDTYKKAGAVHGCAICQEDRVLSFVEDVGRHNAVDTLAGEMWLNGMRGDDKIFYTTGRLTSEMVIKVAQMGIPVLLSRSGVTQMGLELAQRFGITTIARASGRRFHVYSGADKMVFDVKGHSEEAEGHHHHHH | soluble
MSLYLWNIQISSAFLEVISLYEVTLRNTLVKALEPNYRQYSILNDNFIRALRHETREALIVAVNKVSLNSHKYSAVRGAHGMIQPLKIDPRDVPVGKVVAELNFVFWENMLSKTHSSRWKAHYKEAFPNLVVEPNIGIECQIARIHQITGKVRELRNRICHHEPIFDENKINLSELYTQIKEVLNYISRLDKYTKEGHHHHHH | not soluble
MSLYPAEHKEVMVQLMNQGNRSSLMQAWIDDGDTSLPPEKIQVPFMLTPPVAKIGANSGQQVKIKIMPNKLPTNKESIFYLNVLDIPPNSPEQEGKNALKFAMQNRIKLFYRPAGIAPVNKVTFKKLLVNRSGNGLVIKNDSANWVTISDVKANNVKVNYETIMIAPLESQSVNVKSNNANNWHLTIIDDHGNYISDKEGHHHHHH | not soluble
MSLYYEQPIYIATQENWDLELNPQIRTNRGFGLYSTLRFLDSPYSTGELNFGAFRENSSYFHDENLKNQTHYGIELKYSRDDLIKSLLSDNFQEGLWIDATYLNDVDYLNLGSRDYRDLNSLVTSKINYFLADENNFYGAYARYYIDTSKLSNNTTLQEYPSFQYHRFLNNLFDERLRYSFDASFHNFYRPAGSYANELNLDLPISYHNAFFGDFLHFTFTERFYASFVNYSNDPERNHEHYFRNTHDFNLYTDLSKAYENFFHTLNLGVNYILPGAKSGKITQDYLEEYDKENEHTSLYAVQYFYNNEGQKKLKHRISLDYLNKQNEFYELENLLTYYFNENINLNSEVLYSYEQSRFTNVISQIEVNTNSKFNWMFSHAYQNDEYGKYSFIGTRANYIATPNYNLFGGIWFDTQRAHANMWELGYTYQRKCWNYSLMYRERIDPQLTSGGITAKNQSGVYFIFNFYPLGGVKYDFSLAESENKIEGHHHHHH | not soluble
MSMENFAQLLEESFTLQEMNPGEVITAEVVAIDQNFVTVNAGLKSESLIDVAEFKNAQGEIEVKVGDFVTVTIESVENGFGETKLSREKAKRAADWIALEEAMENGNILSGIINGKVKGGLTVMISSIRAFLPGSLVDVRPVKDTSHFEGKEIEFKVIKLDKKRNNVVVSRRAVLEATLGEERKALLENLQEGSVIKGIVKNITDYGAFVDLGGIDGLLHITDLAWRRVKHPSEVLEVGQEVEAKVLKFDQEKQRVSLGMKQLGEDPWSGLTRRYPQATRLFGKVSNLTDYGAFVEIEQGIEGLVHVSEMDWTNKNVHPSKVVQLGDEVEVMILEIDEGRRRISLGMKQCQANPWEEFAANHNKGDKISGAVKSITDFGVFVGLPGGIDGLVHLSDLSWTESGEEAVRKYKKGEEVEAVVLAIDVEKERISLGIKQLEGDPFGNFISVNDKGSLVKGSVKSVDAKGAVIALSDEVEGYLPASEFAADRVEDLTTKLKEGDEVEAVIVTVDRKNRSIKLSVKAKDAKESREALNSVNAAANANAGTTSLGDLLKAKLSGEQELEHHHHHH | not soluble
MSMLKKTKEFFGLAPYEAEHEDAYYADEPRYEGTAAYAPEYRERDYGYAPEAPAPVAPSPAPRSYQSTIVPVELHSFEDAQVIGGAFRDGDAVVFDMSLLSREEARRIVDFAAGLCFALRGKMQKIDSVTFAVVPELSNISTSELERAARIRAAALEHHHHHH | soluble
MSMPYDNEAKIKQAVILLQKIVNDTSVPRNIRRAATDAIRNLQDLGLSPAVRAANAIGILEDISQDPNMPTHARISIWNVVSILETVKD | not soluble
MSNASSTSSGRSSRAEVLWADVLSHIPFVKRFTTPDSRKEQKVRILSKNEVDEEDGVQLEQLIQNQEVILCHSSSMNFHQQCRGSVVDFEYIEKKVKVTVSSESDFPIWEDTDIWMQALSTPTSSLYAIDANTSVNSELIEDESVVQEQKEQISERAPLRLSDDIEEFGDVLVDVIKKKTDTKNNVFTITLGLTGFARFHAEIQLSKESTYYLNFDDGYEDDLASLASEEDILSGYQTIQNVDELCDKIGELTVTDVCIKTWFDILHNYAYIRLIVTSAKRKLQHFKLLTGHHVIIQSATSDRDTVLAVVSRVMKDGIVLTLQGVKKQTKNFVFSKNELFTIQIDHNYEDRLQKLTGKEEEHENLRRELINSDSDIRLHRSWKSNGKQYATFTSKNDAFKKIPFNTKFLLGKCWEAEGVLEKKADFIFAIRVADKNFSTPSTMTFEIKFTRNLVRNSKDFELSKAFYYVDFDLAHFVESDHCYSLLNAKSVNGKPDETVVKSCPIDEDLVFSVFPFQCGRRAEERRRGYQESQREVQSSTKKPDVKVEKNVKLEAPEKQNKRKDTALNPKEKYCAQKLEKQLNDQTKTPKQKPKQETSAGIKRESTQRPCVIPRTFETSNSKDASNKVPLQSVSEPKILLQDTNSRCAQPRKAVSHEGLKSHQQENVLKHLDNKHKFLCFVNIAKRIENDNGNPLVELSIGFDENGGKVQQSPWPLGIRMLLTDGLEKTEVKIQGDVQDTNGETVTFMIQQQLSDLDFLNSYKPKKLLACFREHGHNLK | not soluble
